# Test results as given in patent US20140348865A1, “[…] ON AN HIV-1 V1V2 SITE-OF-VULNERABILITY” (The United States of America, as represented by the …, priority 2011, published 2014).
# Key:
# [1] = target: Env of HIV-1 strain CNE30 (pseudovirus) (HIV-1)
# [2] = target: Env of HIV-1 strain 6471 (pseudovirus) (HIV-1)
# [3] = target: Env of HIV-1 strain 6405 (pseudovirus) (HIV-1)
# [4] = target: Env of HIV-1 strain A03349M1 (pseudovirus) (HIV-1)
# [5] = target: Env of HIV-1 strain X2088 (pseudovirus) (HIV-1)
# [6] = target: Env of HIV-1 strain ZM135 (pseudovirus) (HIV-1)
# [7] = target: Env of HIV-1 strain CNE30 (pseudovirus) (HIV-1); remark: listed apart in the source
# [8] = target: Env of HIV-1 strain 6631 (pseudovirus) (HIV-1)
# [9] = target: Env of HIV-1 strain 6322 (pseudovirus) (HIV-1)
substance,measurement,setting,value
monoclonal antibody PG9,neutralization IC50,ZM146.7,0.635 µg/mL
same,neutralization IC50,CNE58,< 0.023 µg/mL
same,neutralization IC50,DU422.01,0.303 µg/mL
same,neutralization IC50,CNE15,< 0.023 µg/mL
same,neutralization IC50,CH117.4,0.008 µg/mL
same,neutralization IC50,ZM176.66,0.007 µg/mL
same,neutralization IC50,CNE7,1.66 µg/mL
same,neutralization IC50,DU123.06,0.091 µg/mL
same,neutralization IC50,TV1.29,0.008 µg/mL
same,neutralization IC50,CNE31,13.5 µg/mL
same,neutralization IC50,3168.V4.C10,0.162 µg/mL
same,neutralization IC50,CNE57,> 50 µg/mL
same,neutralization IC50,TZBD.02,0.266 µg/mL
same,neutralization IC50,CH181.12,0.008 µg/mL
same,neutralization IC50,TZA125.17,0.231 µg/mL
same,neutralization IC50,ZM106.9,0.639 µg/mL
same,neutralization IC50,CH038.12,0.5 µg/mL
same,neutralization IC50,6644.V2.C33,0.033 µg/mL
same,neutralization IC50,BR025.9,0.044 µg/mL
same,neutralization IC50,DU172.17,0.262 µg/mL
same,neutralization IC50,96ZM651.02,> 50 µg/mL
same,neutralization IC50,[1],> 50 µg/mL
same,neutralization IC50,[2],> 50 µg/mL
same,neutralization IC50,CH070.1,0.006 µg/mL
same,neutralization IC50,CAP45.G3,< 0.023 µg/mL
same,neutralization IC50,3016.v5.c45,0.286 µg/mL
same,neutralization IC50,231965.c1,1.51 µg/mL
same,neutralization IC50,ZM53.12,0.041 µg/mL
same,neutralization IC50,3326.V4.C3,< 0.023 µg/mL
same,neutralization IC50,ZM197.7,0.414 µg/mL
same,neutralization IC50,ZM215.8,< 0.023 µg/mL
same,neutralization IC50,NKU3006.ec1,> 50 µg/mL
same,neutralization IC50,ZM214.15,> 50 µg/mL
same,neutralization IC50,ZM249.1,0.033 µg/mL
same,neutralization IC50,[3],> 50 µg/mL
same,neutralization IC50,SVA.MLV,> 50 µg/mL
same,neutralization IC50,ZM233.6,< 0.023 µg/mL
same,neutralization IC50,UG024.2,3.94 µg/mL
same,neutralization IC50,[4],> 50 µg/mL
same,neutralization IC50,[5],> 50 µg/mL
same,neutralization IC50,3817.v2.c59,0.007 µg/mL
same,neutralization IC50,ZM55.28a,0.571 µg/mL
same,neutralization IC50,57128.vrc15,0.104 µg/mL
same,neutralization IC50,3337.V2.C6,> 50 µg/mL
same,neutralization IC50,UG021.16,> 50 µg/mL
same,neutralization IC50,SIVmac251.30.SG3,> 50 µg/mL
same,neutralization IC80,CH181.12 (HIV-1),0.04 µg/mL
same,neutralization IC80,ZM176.66 (HIV-1),0.05 µg/mL
same,neutralization IC80,96ZM651_02 (HIV-1),> 50 µg/mL
same,neutralization IC80,ZA012.29 (HIV-1),> 50 µg/mL
same,neutralization IC80,CNE15 (HIV-1),< 0.023 µg/mL
same,neutralization IC80,DU156.12 (HIV-1),0.143 µg/mL
same,neutralization IC80,CH117.4 (HIV-1),0.03 µg/mL
same,neutralization IC80,ZM215.8 (HIV-1),0.228 µg/mL
same,neutralization IC80,ZM146.7 (HIV-1),6.78 µg/mL
same,neutralization IC80,3168.V4.C10 (HIV-1),0.657 µg/mL
same,neutralization IC80,CNE40 (HIV-1),20 µg/mL
same,neutralization IC80,TZA125.17 (HIV-1),1.21 µg/mL
same,neutralization IC80,CAP210.E8 (HIV-1),0.501 µg/mL
same,neutralization IC80,[6],> 50 µg/mL
same,neutralization IC80,ZM214.15 (HIV-1),> 50 µg/mL
same,neutralization IC80,DU172.17 (HIV-1),0.899 µg/mL
same,neutralization IC80,CNE53 (HIV-1),0.809 µg/mL
same,neutralization IC80,CNE31 (HIV-1),> 50 µg/mL
same,neutralization IC80,[7],> 50 µg/mL
same,neutralization IC80,CNE7 (HIV-1),4.5 µg/mL
same,neutralization IC80,[8],> 50 µg/mL
same,neutralization IC80,[9],> 50 µg/mL
same,neutralization IC80,CAP45.G3 (HIV-1),< 0.023 µg/mL
monoclonal antibody PG16,neutralization IC50,ZM146.7,0.767 µg/mL
same,neutralization IC50,CNE58,< 0.023 µg/mL
same,neutralization IC50,DU422.01,< 0.023 µg/mL
same,neutralization IC50,CNE15,< 0.023 µg/mL
same,neutralization IC50,CH117.4,0.005 µg/mL
same,neutralization IC50,ZM176.66,0.002 µg/mL
same,neutralization IC50,CNE7,0.393 µg/mL
same,neutralization IC50,DU123.06,< 0.023 µg/mL
same,neutralization IC50,TV1.29,0.002 µg/mL
same,neutralization IC50,CNE31,2.51 µg/mL
same,neutralization IC50,3168.V4.C10,0.037 µg/mL
same,neutralization IC50,CNE57,> 50 µg/mL
same,neutralization IC50,TZBD.02,0.025 µg/mL
same,neutralization IC50,CH181.12,0.002 µg/mL
same,neutralization IC50,TZA125.17,0.024 µg/mL
same,neutralization IC50,ZM106.9,1.1 µg/mL
same,neutralization IC50,CH038.12,49 µg/mL
same,neutralization IC50,6644.V2.C33,35.3 µg/mL
same,neutralization IC50,BR025.9,0.009 µg/mL
same,neutralization IC50,DU172.17,0.03 µg/mL
same,neutralization IC50,96ZM651.02,> 50 µg/mL
same,neutralization IC50,[1],> 50 µg/mL
same,neutralization IC50,[2],> 50 µg/mL
same,neutralization IC50,CH070.1,0.002 µg/mL
same,neutralization IC50,CAP45.G3,< 0.023 µg/mL
same,neutralization IC50,3016.v5.c45,> 50 µg/mL
same,neutralization IC50,231965.c1,4.72 µg/mL
same,neutralization IC50,ZM53.12,< 0.023 µg/mL
same,neutralization IC50,3326.V4.C3,< 0.023 µg/mL
same,neutralization IC50,ZM197.7,0.65 µg/mL
same,neutralization IC50,ZM215.8,> 50 µg/mL
same,neutralization IC50,NKU3006.ec1,> 50 µg/mL
same,neutralization IC50,ZM214.15,> 50 µg/mL
same,neutralization IC50,ZM249.1,0.073 µg/mL
same,neutralization IC50,[3],> 50 µg/mL
same,neutralization IC50,SVA.MLV,> 50 µg/mL
same,neutralization IC50,ZM233.6,< 0.023 µg/mL
same,neutralization IC50,UG024.2,> 50 µg/mL
same,neutralization IC50,[4],> 50 µg/mL
same,neutralization IC50,[5],> 50 µg/mL
same,neutralization IC50,3817.v2.c59,0.006 µg/mL
same,neutralization IC50,ZM55.28a,> 50 µg/mL
same,neutralization IC50,57128.vrc15,0.162 µg/mL
same,neutralization IC50,3337.V2.C6,> 50 µg/mL
same,neutralization IC50,UG021.16,> 50 µg/mL
same,neutralization IC50,SIVmac251.30.SG3,> 50 µg/mL
same,neutralization IC80,CH181.12 (HIV-1),0.01 µg/mL
same,neutralization IC80,ZM176.66 (HIV-1),0.01 µg/mL
same,neutralization IC80,96ZM651_02 (HIV-1),> 50 µg/mL
same,neutralization IC80,ZA012.29 (HIV-1),> 50 µg/mL
same,neutralization IC80,CNE15 (HIV-1),< 0.023 µg/mL
same,neutralization IC80,DU156.12 (HIV-1),< 0.023 µg/mL
same,neutralization IC80,CH117.4 (HIV-1),0.028 µg/mL
same,neutralization IC80,ZM215.8 (HIV-1),> 50 µg/mL
same,neutralization IC80,ZM146.7 (HIV-1),> 50 µg/mL
same,neutralization IC80,3168.V4.C10 (HIV-1),0.515 µg/mL
same,neutralization IC80,CNE40 (HIV-1),> 50 µg/mL
same,neutralization IC80,TZA125.17 (HIV-1),0.719 µg/mL
same,neutralization IC80,CAP210.E8 (HIV-1),0.882 µg/mL
same,neutralization IC80,[6],> 50 µg/mL
same,neutralization IC80,ZM214.15 (HIV-1),> 50 µg/mL
same,neutralization IC80,DU172.17 (HIV-1),0.134 µg/mL
same,neutralization IC80,CNE53 (HIV-1),> 50 µg/mL
same,neutralization IC80,CNE31 (HIV-1),> 50 µg/mL
same,neutralization IC80,[7],> 50 µg/mL
same,neutralization IC80,CNE7 (HIV-1),1.91 µg/mL
same,neutralization IC80,[8],> 50 µg/mL
same,neutralization IC80,[9],> 50 µg/mL
same,neutralization IC80,CAP45.G3 (HIV-1),< 0.023 µg/mL
